From article PMC4451460 (2015)

Molecular target: C4 single-chain Fv antibody (C4 scFv) (human (from a human scFv phage-display …))
Assay: ITC

Row | Binder | Ka [M⁻¹]
1 | MATLEKLMKAFESLKSF [HTT(1-17) peptide, the 17 N-terminal residues of huntingtin] | 1.8e+07
2 | MATLEKLMKAFESLK [truncated peptide HTT(1-15)] | 6.87e+06
3 | MATLEKLMKAFESL [truncated peptide HTT(1-14)] | 3.09e+06
4 | MATLEKLMKAFESLKS [truncated peptide HTT(1-16)] | 9.08e+06
